Biological target: GST-VCA (GST fusion of human N-WASP residues 392-505) on glutathione Sepharose (human) (UniProt O00401)
Assay: pull-down

GST-VCA (GST fusion of human N-WASP residues 392-505) on glutathione Sepharose (human), sequence (O00401 392-505): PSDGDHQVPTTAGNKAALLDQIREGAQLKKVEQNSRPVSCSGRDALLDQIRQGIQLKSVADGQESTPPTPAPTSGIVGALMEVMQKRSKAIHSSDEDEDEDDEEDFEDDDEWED

Question: How did the percent depleted from the extract by the beads turn out when “Arp2/3 complex endogenous in human platelet extracts (from UniProt P61158;P61160;O15145)” was run?
Answer: > 80%

Reference: publication PMC2156126
